Positions count from the first letter of the chain named.
How the values were obtained:
HLA-DR13 (DRB1*1301) = HLA-DR13 (DRB1*1301) (Homo sapiens, UniProt P01903+P01911, A100E/A169T/K41T/L162R/M171V/P40S/Q125H/Q178H/Q39Y/Q99D/R42S/S66N/T262R/W38E/Y61H); experiment: HLA II/peptide competition binding assay, DR13; settings: ratio of IC50 of competitor peptide to IC50 of reference peptide; mean of at least two independent experiments; less than 100 = active
HLA-DR15 (DRB1*1501) = HLA-DR15 (DRB1*1501) (Homo sapiens, UniProt P01903+P01911); experiment: HLA II/peptide competition binding assay, DR15; settings: ratio of IC50 of competitor peptide to IC50 of reference peptide; mean of at least two independent experiments; less than 100 = active
HLA-DP401 (DPB1*0401) = target: T1, HLA-DP401 (DPB1*0401) (Homo sapiens, UniProt P04440+P20036); type: binding; settings: ratio of IC50 of competitor peptide to IC50 of reference peptide; mean of at least two independent experiments; less than 100 = active
T1 sequence (P04440 30-258): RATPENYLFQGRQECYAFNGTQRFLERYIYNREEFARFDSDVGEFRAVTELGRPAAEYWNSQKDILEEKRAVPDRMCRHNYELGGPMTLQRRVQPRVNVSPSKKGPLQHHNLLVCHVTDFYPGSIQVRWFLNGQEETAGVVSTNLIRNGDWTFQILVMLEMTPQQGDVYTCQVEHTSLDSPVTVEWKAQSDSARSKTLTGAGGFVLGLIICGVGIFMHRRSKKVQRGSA
T1 sequence (P20036 29-260): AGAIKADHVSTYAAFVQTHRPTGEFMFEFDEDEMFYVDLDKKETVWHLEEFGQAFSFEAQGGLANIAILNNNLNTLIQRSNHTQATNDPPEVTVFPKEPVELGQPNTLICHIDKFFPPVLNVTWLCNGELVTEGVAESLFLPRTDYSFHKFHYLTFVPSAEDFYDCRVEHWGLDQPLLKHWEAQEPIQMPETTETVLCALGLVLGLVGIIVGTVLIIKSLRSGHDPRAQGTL

HLA-DR4 (DRB1*0401) = HLA-DR4 (DRB1*0401) (Homo sapiens, UniProt P01903+P01911, A100K/A169T/F76Y/I96L/K127E/L162R/M171V/N62H/P40V/Q125Y/R42H/S133A/S149N/S66Y/V115G/V209L/W38E); experiment: HLA II/peptide competition binding assay, DR4; settings: ratio of IC50 of competitor peptide to IC50 of reference peptide; mean of at least two independent experiments; less than 100 = active
HLA-DP402 (DPB1*0402) = target: T2, HLA-DP402 (DPB1*0402) (Homo sapiens, UniProt P04440+P20036, A65V/A84D/A85E/L207M); type: binding; settings: ratio of IC50 of competitor peptide to IC50 of reference peptide; mean of at least two independent experiments; less than 100 = active
T2 sequence (P04440 30-258 A65V/A84D/A85E): T1 sequence (P04440 30-258) with A36V, A55D, A56E
T2 sequence (P20036 29-260): T1 sequence (P20036 29-260)

HLA-DRB3 (DRB3*0101) = HLA-DRB3 (DRB3*0101) (Homo sapiens, UniProt P01903+P79483); experiment: HLA II/peptide competition binding assay, DRB3; settings: ratio of IC50 of competitor peptide to IC50 of reference peptide; mean of at least two independent experiments; less than 100 = active
HLA-DR3 (DRB1*0301) = HLA-DR3 (DRB1*0301) (Homo sapiens, UniProt P01903+P01911, A100K/A102G/A103R/A169T/F55Y/I96L/K41T/L162R/M171V/P40S/Q125H/Q178H/Q39Y/R42S/S66N/T106N/T262R/W38E/Y61H); experiment: HLA II/peptide competition binding assay, DR3; settings: ratio of IC50 of competitor peptide to IC50 of reference peptide; mean of at least two independent experiments; less than 100 = active
HLA-DRB4 (DRB4*0101) = HLA-DRB4 (DRB4*0101) (Homo sapiens, UniProt P01903+P13762, G164S); experiment: HLA II/peptide competition binding assay, DRB4; settings: ratio of IC50 of competitor peptide to IC50 of reference peptide; mean of at least two independent experiments; less than 100 = active
[1] = test system: 12 predominant HLA II molecules; experiment: HLA II/peptide binding assays, count over the panel; parameters: species or system human; settings: relative activity of less than 100 characterizes the active peptides
Excerpt: The assays for binding to HLA II molecules are competition binding assays with immunoenzymatic visualization, as described in U.S. Pat. No. 6,649,166 and PCT international application WO 03/040299, respectively, for the HLA-DR and HLA-DP4 molecules. The implementation of these assays for measuring the binding activity of peptides derived from various antigens is illustrated in U.S. Pat. No. 6,649,166 and PCT international applications WO 02/090382, WO 03/040299 and WO 2004/014936.
The sensitivity of each test is reflected by the IC50 values observed with the nonbiotinylated peptides which correspond to the tracers. […] The results are expressed in the form of relative activity (ratio of the IC50 of the competitor peptide to that of the reference peptide (nonbiotinylated peptide which corresponds to the tracer)). A relative activity of less than 100 characterizes the active peptides.

[2] = test system: CD8^+ T lymphocytes of healthy individuals possessing the HLA-A2 molecule; experiment: In vitro induction of peptide-specific CD8+ T lymphocyte lines, IFN-γ Elispot; type: cell-based, human; settings: for Ability to induce an in vitro CD8+ T lymphocyte response: cells from healthy HLA-A2 individuals, 4 weeks of culture
Procedure: The PBMCs were then cultured in AIM V medium (Life Technologies) and incubated overnight at 37° C. in the presence of 5% CO2/95% air. The CD8^+ T lymphocytes were purified from the nonadherent cells by immunomagnetic sorting, and frozen. The adherent cells were differentiated into immature dendritic cells by culturing for 5 days in AIM V medium containing 1000 U/ml of GM-CSF and 1000 U/ml of IL-4, and then into mature dendritic cells by culturing for 2 days in the presence of 1 μg/ml of LPS, 1000 U/ml of IL-4 and 1000 U/ml of GM-CSF. The mature dendritic cells were incubated in the presence of 5 μg/ml of beta-2-microglobulin and 10 μg/ml of each of the peptides of table IV. After 4 hours, the cells were washed and then placed in culture in 96-well plates, in the presence of purified CD8 T lymphocytes in IMDM medium containing 10% of group AB human serum, IL-6 (1000 U/ml) and IL-12 (5 ng/ml). Each week, the culture was restimulated with autologous mature dendritic cells loaded with the peptide mixture mentioned above, in medium containing 20 U/ml of IL-2 and 10 ng/ml of IL-7. After 4 weeks of culture, the specificity of the T cell lines contained in each well was tested by IFN-γ Elispot.
Anti-IFN-γ antibodies (1-D1K, Mabtech) diluted to 2.5 μg/ml in PBS buffer were adsorbed onto nitrocellulose plates (Millipore) for 1 hour at 37° C. The plates were then washed with PBS and then saturated with Iscove medium containing 10% of group AB human serum (100 μg/well), for 2 h at 37° C.
In order to verify the specificity of the lines with respect to the HLA-A2 molecule, the C1R cells transfected with HLA-A2 (30 000 cells/well) and 5000 test lymphocytes were then added to the plates and incubated for 24 h at 37° C., in the presence or absence of a single peptide (10 μg of peptide) or of a mixture of peptides (10 μg of each peptide). For the dose-response analyses, the peptides are used at various concentrations ranging from 0.001 to 10 μg/ml.
After three successive washes with water, PBS buffer/0.05% Tween and PBS alone, 100 μl of biotinylated anti-IFN-γ secondary antibody (7-B6-1-biotin, Mabtech), diluted to 0.25 μg/ml in PBS containing 1% BSA, were added to each well. After one hour of incubation at ambient temperature, the plates were washed again and then incubated for one hour at ambient temperature with 100 μg/well of Extravidin-AKP (E-2636, Sigma), diluted to 1/6000. After washing of the plates in PBS buffer, 100 μl of NBT/BCIP substrate B-5655, Sigma), diluted in water (1 tablet in 10 ml of water), were distributed in each well. The immunoenzymatic visualization was stopped after approximately 10 minutes, by thorough rinsing of the plates in water. After drying of the plates, the colored spots were counted using an automatic reader (AID). The lines are considered to be positive when the number of spots is more than three times that obtained with the negative control (control without peptides) with a minimum of 50 spots. The control without presenting cells makes it possible to verify the specificity of the response for HLA-A2 (restriction control).

Substance	Relative binding activity, DR13 (HLA-DR13 (DRB1*1301))	Relative binding activity, DR15 (HLA-DR15 (DRB1*1501))	Relative binding activity, DR4 (HLA-DR4 (DRB1*0401))	Relative binding activity, DR3 (HLA-DR3 (DRB1*0301))	Total (number of the 12 predominant HLA II molecules bound) [1]	Ability to induce an in vitro CD8+ T lymphocyte response [2]	also measured
E T I R V T K P C T P K T K A (ETIRVTKPCTPKTKA) [MDK 119-133]	>2 537	>529	1 289	>419	–	–	Relative binding activity, DP401 (HLA-DP401 (DPB1*0401)): >879; Relative binding activity, DP402 (HLA-DP402 (DPB1*0402)): >976; Relative binding activity, DRB3 (HLA-DRB3 (DRB3*0101)): >485; Relative binding activity, DRB4 (HLA-DRB4 (DRB4*0101)): >28 868
L L A L T S A V A K K K D K V (LLALTSAVAKKKDKV; MDK 14-28 peptide)	–	>529	–	>419	4	–	Total (number of the 12 predominant HLA II molecules bound) ([1]; listed as 14-28): several; Relative binding activity, DP401 (HLA-DP401 (DPB1*0401)): >879; Relative binding activity, DP402 (HLA-DP402 (DPB1*0402)): >976; Relative binding activity, DRB3 (HLA-DRB3 (DRB3*0101)): >485; Relative binding activity, DRB4 (HLA-DRB4 (DRB4*0101)): >28 868
LALLALTSAV (MDK 12-21 peptide)	–	–	–	–	–	induced CD8^+ T lymphocytes	Peptide specificity of CD8+ T lymphocyte line 267.29A ([2]; FIG. 2): specific
LLALTSAVA (MDK 14-22 peptide)	–	–	–	–	–	induced CD8^+ T lymphocytes	Peptide specificity of CD8+ T lymphocyte line 278.11A ([2]; FIG. 2): specific
M Q H R G F L L L T L L A L L (MQHRGFLLLTLLALL; MDK 1-15 peptide)	>2 537	211	226	>419	5	–	Total (number of the 12 predominant HLA II molecules bound) ([1]; listed as 1-15): several
NAQCQETIRV (MDK 113-122 peptide)	–	–	–	–	–	induced CD8^+ T lymphocytes	–
R G F L L L T L L A L L A L T (RGFLLLTLLALLALT; MDK 4-18 peptide)	>2 537	–	136	>419	9	–	Total (number of the 12 predominant HLA II molecules bound) ([1]; listed as 4-18): several

From patent US20110159022A1, “Immunogenic Peptides Derived from the Midkine Protein, as an Anticancer Vaccine” (priority 2008, published 2011)
